Results as given in the supplement of paper PMC10724198.
± gives the standard deviation of the averaged measurements.
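Note: PSI is a weighted mean of sequencing reads over stability bins, variants kept only with over 10 reads, mCherry proximal and sfGFP distal, peptide attached via GGGS linker.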

Each sequence was assayed on Saccharomyces cerevisiae (assay: protein stability index of tFT-peptide fusion (C-terminal peptide) (PSI (0-1 scale)); higher = more stable (slower turnover)). Conditions: genetic background: wild type; temperature: 30 C.
TWRWVGGRWSGL gave a protein stability index of 0.5601 ± 0.0026.
Sequence TYATPSLVFPLL has a protein stability index of 0.695 ± 0.011.
For TYPSWIYELNKT, the protein stability index was 0.753 ± 0.077.
With TYQVVPRDAPYV the protein stability index was 0.672 ± 0.025.
TYVSKCRLYEPA showed a protein stability index of 0.644 ± 0.011.
In the case of VAAFGGGRTNGV, the protein stability index is reported as 0.724 ± 0.024.
With VAAQRYAQRLFT the protein stability index was 0.652 ± 0.021.
VACYVDWSQNHR showed a protein stability index of 0.728 ± 0.06.
Work on VAGFVPSWVALW yielded a protein stability index of 0.643 ± 0.1.
Sequence VALEFLGWVGLS has a protein stability index of 0.684 ± 0.094.
Sequence VALHRIPVTVSR has a protein stability index of 0.578 ± 0.026.
VALLKCTGTAQI was tested, and the protein stability index was 0.61 ± 0.033.
VAPDSARVFHFV showed a protein stability index of 0.64 ± 0.025.
VARCWGGLGLAR showed a protein stability index of 0.692 ± 0.047.
In the case of VARPEWWSGGGS, the protein stability index is reported as 0.727 ± 0.03.
With VARPMHFIRYGK the protein stability index was 0.716 ± 0.018.
VARRGLFLSISW gave a protein stability index of 0.596 ± 0.088.
For VASFLRFRLPPQ, the protein stability index was 0.71 ± 0.083.
For VASPAPALRPPL, the protein stability index was 0.746 ± 0.093.
Work on VAVDGSDQGGTR yielded a protein stability index of 0.64 ± 0.079.
In the case of VAVGHWGIVPLW, the protein stability index is reported as 0.725 ± 0.08.
With VAVMPKPLGVVR the protein stability index was 0.552 ± 0.046.
Work on VAVWGAIRHASN yielded a protein stability index of 0.718 ± 0.033.
VCARAGRALEDS was tested, and the protein stability index was 0.674 ± 0.08.
Work on VCAVRVGGGGEG yielded a protein stability index of 0.601 ± 0.04.
For VCFLFGLVGFGS, the protein stability index was 0.597 ± 0.0085.
VCGGRLVGWGGW was tested, and the protein stability index was 0.729 ± 0.1.
VCGSGGGCWGGG showed a protein stability index of 0.622 ± 0.0096.
VCICDRLASRDV gave a protein stability index of 0.733 ± 0.067.
VCNFQIGGDRGV gave a protein stability index of 0.71 ± 0.052.
With VCRCWGGKGQDS the protein stability index was 0.71 ± 0.012.
Work on VCRGRGGEGIGW yielded a protein stability index of 0.721 ± 0.096.
With VCRVGGVMAGDT the protein stability index was 0.669 ± 0.049.
Sequence VCSLTFFGLCRP has a protein stability index of 0.69 ± 0.025.
VCSYISGRKSVL gave a protein stability index of 0.568 ± 0.0048.
In the case of VCVCSVPNLGLW, the protein stability index is reported as 0.675 ± 0.029.
VCVSCTPALLFL gave a protein stability index of 0.608 ± 0.056.
VDGRIYIGIISR gave a protein stability index of 0.677 ± 0.032.
VDSPFPTPLPLI gave a protein stability index of 0.685 ± 0.087.
VDWVEAYVCVGV was tested, and the protein stability index was 0.538 ± 0.024.
In the case of VEASRSCTKLDG, the protein stability index is reported as 0.675 ± 0.02.
Sequence VEDRTTNVLNIT has a protein stability index of 0.682 ± 0.027.
Work on VEGFVPEDGKEE yielded a protein stability index of 0.684 ± 0.024.
Sequence VELEPPVCVFLL has a protein stability index of 0.6391 ± 0.0017.
For VEQSYKESVNLD, the protein stability index was 0.682 ± 0.017.
For VESDREPIFGCA, the protein stability index was 0.65467 ± 0.00014.
VEVRVRCVGGRV was tested, and the protein stability index was 0.703 ± 0.068.
VFACDTRHWSFD was tested, and the protein stability index was 0.796 ± 0.019.
Sequence VFARKARGFDDV has a protein stability index of 0.7188 ± 0.0065.
VFAVGRPGRGVV showed a protein stability index of 0.648 ± 0.014.
VFGPRSIARGAI was tested, and the protein stability index was 0.727 ± 0.12.
Sequence VFHLFSAVSLRL has a protein stability index of 0.592 ± 0.0084.
In the case of VFITSLWTPLLL, the protein stability index is reported as 0.617 ± 0.019.
With VFLRGSVLGLCI the protein stability index was 0.606 ± 0.034.
Sequence VFLRSGCSGGGE has a protein stability index of 0.799 ± 0.063.
VFLTASVLVAPF was tested, and the protein stability index was 0.575 ± 0.015.
VFPPTPPTVPRG gave a protein stability index of 0.727 ± 0.0077.
With VFPWRDSNLYAS the protein stability index was 0.713 ± 0.021.
In the case of VFRPFVLPLMFP, the protein stability index is reported as 0.611 ± 0.053.
For VFSARVVGGVLF, the protein stability index was 0.681 ± 0.011.
VFSTFGSCHICC showed a protein stability index of 0.636 ± 0.033.
For VFVCFMSHLRGS, the protein stability index was 0.58 ± 0.012.
In the case of VFVPCIFRQIAG, the protein stability index is reported as 0.6096 ± 0.0019.
VFYVGGGAVVRG gave a protein stability index of 0.689 ± 0.023.
Sequence VFYVGGGSVVRG has a protein stability index of 0.663 ± 0.011.
Sequence VGAGRGKGRGGG has a protein stability index of 0.617 ± 0.013.
In the case of VGASRFRLSNCF, the protein stability index is reported as 0.677 ± 0.02.
Work on VGCLGGCGCGGV yielded a protein stability index of 0.716 ± 0.07.
VGCQAIESRLHL was tested, and the protein stability index was 0.737 ± 0.077.
For VGCSGGRGAGVV, the protein stability index was 0.649 ± 0.018.
For VGCSGVYIWGNL, the protein stability index was 0.707 ± 0.015.
For VGDIGLEVKLFF, the protein stability index was 0.72 ± 0.0076.
VGDPHPIMQSLL gave a protein stability index of 0.773 ± 0.049.
For VGEVAGRWCGRG, the protein stability index was 0.7 ± 0.025.
For VGFGEGCLSFPF, the protein stability index was 0.668 ± 0.072.
VGFRMAMVVGGL gave a protein stability index of 0.519 ± 0.026.
In the case of VGFSVLGGRAGW, the protein stability index is reported as 0.712 ± 0.044.
For VGGGAVRAWGLR, the protein stability index was 0.688 ± 0.028.
For VGGGGAVDGRSG, the protein stability index was 0.7298 ± 0.0025.
VGGGLGGGVVLV was tested, and the protein stability index was 0.6993 ± 0.0011.
VGGGPVWREPGT was tested, and the protein stability index was 0.796 ± 0.025.
Sequence VGGGRGGVVRSG has a protein stability index of 0.654 ± 0.1.
VGGRDDGFVWEG gave a protein stability index of 0.667 ± 0.031.
VGGRDWADSLVV showed a protein stability index of 0.772 ± 0.015.
Work on VGGVVWIGGVVG yielded a protein stability index of 0.667 ± 0.074.
With VGIRTFFRFRMR the protein stability index was 0.6692 ± 0.0014.
In the case of VGKCGSGCLHST, the protein stability index is reported as 0.6313 ± 0.004.
For VGLTGFSQLGDG, the protein stability index was 0.675 ± 0.032.
VGPCGGVGHLGS was tested, and the protein stability index was 0.73 ± 0.036.
With VGPRGFYSFVGG the protein stability index was 0.665 ± 0.014.
For VGRENNENREEE, the protein stability index was 0.629 ± 0.021.
VGRPGGVAQHRG showed a protein stability index of 0.734 ± 0.077.
In the case of VGSCGAPRLPWP, the protein stability index is reported as 0.732 ± 0.038.
Work on VGSFVGSREGVW yielded a protein stability index of 0.613 ± 0.029.
VGSGEWTRAMNR showed a protein stability index of 0.673 ± 0.062.
Work on VGSLCSRLGRRS yielded a protein stability index of 0.765 ± 0.13.
VGSLFGFGGRWV showed a protein stability index of 0.645 ± 0.0082.
VGSPPVWAAVWG showed a protein stability index of 0.614 ± 0.12.
Sequence VGSVVRGLVGPY has a protein stability index of 0.717 ± 0.19.
Sequence VGTSVTSSFRGK has a protein stability index of 0.591 ± 0.078.
VGVAREGQVGAA showed a protein stability index of 0.694 ± 0.024.
In the case of VGVCLVSLGSWL, the protein stability index is reported as 0.605 ± 0.013.
Sequence VGVGAGQWVVWY has a protein stability index of 0.682 ± 0.028.
VGVGWWVGLWGL was tested, and the protein stability index was 0.693 ± 0.011.
Work on VGVPFLVVGVGV yielded a protein stability index of 0.583 ± 0.00081.
VGVSLVLPDWDV was tested, and the protein stability index was 0.693 ± 0.053.
VGWGECPKVECV showed a protein stability index of 0.599 ± 0.1.
VGWGWGGGVVLV showed a protein stability index of 0.692 ± 0.0098.
VGYGTGGAVGVE showed a protein stability index of 0.691 ± 0.041.
For VHCGTEPRGPRH, the protein stability index was 0.709 ± 0.027.
With VHENVGSGYNLE the protein stability index was 0.734 ± 0.14.
In the case of VHPRFSFGPHFV, the protein stability index is reported as 0.7027 ± 0.00094.
VHRKGGRLEILG gave a protein stability index of 0.64 ± 0.033.
VHRRRVSVGGGA gave a protein stability index of 0.721 ± 0.05.
In the case of VHSGKGRQAKER, the protein stability index is reported as 0.715 ± 0.048.
For VIACLCGGVMWV, the protein stability index was 0.577 ± 0.0008.
Sequence VIEWFVRGRVGG has a protein stability index of 0.7032 ± 0.00085.
VIGWACLCFGAI was tested, and the protein stability index was 0.555 ± 0.0063.
Sequence VILCPVCFPEEK has a protein stability index of 0.66459 ± 0.00057.
VIMGRGGGNVGG showed a protein stability index of 0.701 ± 0.053.
In the case of VIMNPGNDFLQK, the protein stability index is reported as 0.702 ± 0.011.
With VINKHYINKCQG the protein stability index was 0.638 ± 0.088.
For VIPSCMVFSSTG, the protein stability index was 0.71 ± 0.049.
In the case of VITAYHSLTYGA, the protein stability index is reported as 0.6878 ± 0.0038.
VITCGLVLRSVR gave a protein stability index of 0.652 ± 0.031.
In the case of VITFPAFLPISN, the protein stability index is reported as 0.702 ± 0.017.
VIVRAFRWNLVR showed a protein stability index of 0.605 ± 0.029.
VKTGIKQSLTEP showed a protein stability index of 0.6982 ± 0.0037.
VKTSRASLSGKL showed a protein stability index of 0.805 ± 0.12.
Work on VLAPPPLLPPPY yielded a protein stability index of 0.6843 ± 0.0021.
VLCIYKLSQVRL was tested, and the protein stability index was 0.654 ± 0.049.
Work on VLFGLSTSSLCL yielded a protein stability index of 0.644 ± 0.075.
With VLFHWAGFFLFL the protein stability index was 0.525 ± 0.029.
Sequence VLFPSPSPPLSS has a protein stability index of 0.7 ± 0.0071.
VLFSCLSLCWVF was tested, and the protein stability index was 0.6081 ± 0.005.
Work on VLGFGSVPAWIE yielded a protein stability index of 0.776 ± 0.048.
In the case of VLGIVEKRGILR, the protein stability index is reported as 0.773 ± 0.11.
Sequence VLGPWVLSVLWF has a protein stability index of 0.546 ± 0.022.
Work on VLHLVGFDADVV yielded a protein stability index of 0.725 ± 0.021.
VLKYSVQHREFS gave a protein stability index of 0.685 ± 0.019.
For VLLAGRLEEGGE, the protein stability index was 0.65 ± 0.087.
In the case of VLLLLLSLLFGV, the protein stability index is reported as 0.5135 ± 0.0023.
Work on VLLSSWLIWLGG yielded a protein stability index of 0.62 ± 0.01.
VLMGGCGSWMAV was tested, and the protein stability index was 0.6771 ± 0.0044.
VLPAGAGKGCVG showed a protein stability index of 0.653 ± 0.052.
Sequence VLPSSSPPGLRC has a protein stability index of 0.6698 ± 0.0059.
VLQSLRSLRRLG showed a protein stability index of 0.549 ± 0.071.
VLRRCGRERGIF gave a protein stability index of 0.688 ± 0.034.
Work on VLRRRPNDMRKF yielded a protein stability index of 0.6939 ± 0.0062.
VLSEHRGLPLTR showed a protein stability index of 0.659 ± 0.066.
Sequence VLSLPLPSLSLN has a protein stability index of 0.725 ± 0.18.
VLSPLIGRICGH gave a protein stability index of 0.658 ± 0.01.
VLSSPPVPAPRP gave a protein stability index of 0.701 ± 0.051.
VLSYFFLFSCAS showed a protein stability index of 0.502 ± 0.098.
Sequence VLVGWWGLGGGV has a protein stability index of 0.642 ± 0.046.
VLVYISDLKRSL gave a protein stability index of 0.689 ± 0.14.
Work on VLWLPPSPTPNL yielded a protein stability index of 0.721 ± 0.1.
Work on VMCECALLVQSR yielded a protein stability index of 0.563 ± 0.028.
VMCWARGWVGST was tested, and the protein stability index was 0.655 ± 0.05.
With VMGFCDWLGVFL the protein stability index was 0.728 ± 0.012.
